Earlier results in patent US20240189387A1, “DOSING REGIMENS FOR HEMATOPOIETIC STEM CELL MOBILIZATION FOR STEM CELL TRANSPLANTS IN MULTIPLE MYELOMA PATIENTS” (Ensoma, Inc., priority 2021, published 2024).
Like-named read-outs stand apart in the source and are kept apart here.

Columns and labels:
[1] = tested on: graft cell subsets (T cells, B cells, NK cells); conditions: cited from earlier work
[2] = tested on: neutrophil activation markers (L-selectin, CD11b, CD18, CD66); conditions: 5 days of G-CSF treatment, Falanga et al., Blood 1999; cited from earlier work
[3] = tested on: CD90+CD45RA− among CD34+ cells; conditions: Goncalves ASTCT 2021; cited from earlier work
[4] = G-CSF; bone pain, headache, myalgia, and/or fatigue (up to 1+ week); Pulsiper et al. 2009; cited from earlier work
[5] = Chen et al., 2019, 2 LP plerixafor, 1 LP G-CSF
[6] = Devine et al, 2008, yield of 1 LP
[7] = G-CSF, Chaidos et al, Blood 2012

B1: G-CSF: Filgrastim (G-CSF), most common clinical hematopoietic stem cell mobilization protocol, five days (protein, chains of the INN, looked up)
chain: MTPLGPASSLPQSFLLKCLEQVRKIQGDGAALQEKLCATYKLCHPEELVLLGHSLGIPWAPLSSCPSQALQLAGCLSQLHSGLFLYQGLLQALEGISPELGPTLDTLQLDVADFATTIWQQMEELGMAPALQPTQGAMPAFASAFQRRAGGVLVASHLQSFLEVSYRVLRHLAQP
[1]; Chen et al., 2019, 2 LP for plerixafor (N = 50+), 1 LP for G-CSF (N = 112+)
  graft CD34+ Median (range): 4.2e+06 kg⁻¹
[1]; [5]
  graft CD3+ Median (range): 2.5e+08 kg⁻¹
  graft CD4+ Median (range): 1.5e+08 kg⁻¹
  graft CD8+ Median (range): 7e+07 kg⁻¹
  graft CD19+ Median (range): 5e+07 kg⁻¹
  graft CD56+ Median (range): 1e+07 kg⁻¹
[1]; [6]
  graft CD3+ Median (range): 1.3 (1.2-6.8) ×10^8/kg
  graft CD4+ Median (range): 1.1 (0.7-3.2) ×10^8/kg
  graft CD8+ Median (range): 0.4 (0.3-3.4) ×10^8/kg
  graft CD56+ Median (range): 0.2 (0.1-0.5) ×10^8/kg
[1]; Devine et al, 2008, yield of 1 LP, plerixafor N = 24, G-CSF N = 8
  graft CD34+ Median (range): 4.2 (2.5-18.7) ×10^6/kg
[1]; G-CSF, 40 healthy donors, Singhal et al, BMT 2000
  TNC/kg donor weight Median (range): 7.2 (3.2-14.0) ×10^8 cells
[1]; G-CSF, 78 healthy donors, Chaidos et al, Blood 2012
  frequency of CD3+ T cells in graft, Median: 45.3 % of CD45+
[1]; [7]
  frequency of CD4+ T cells in graft, Median: 29.8 % of CD45+
  frequency of CD8+ T cells in graft, Median: 11.8 % of CD45+
  frequency of CD19+ B cells in graft, Median: 10.5 % of CD45+
  frequency of CD56+ NK cells in graft, Median: 3.2 % of CD45+
  frequency of Tregs in graft, Median: 3.5 % of CD4+ T cells
  frequency of iNKT cells in graft, Median: 0.04 % of CD3+
[2]
  fold increase in neutrophil activation markers: ~2.7 fold
[3]
  CD90+CD45RA− among CD34+ cells with a regimen that includes G-CSF: 6%
[4]
  tolerability: Majority with bone pain,
